Data reported in the supplement of paper PMC10567573.

B1: IKZF1 (parent)
chain: YHSQDRYEFSSHITRGEHRFHMS
B2: STX5 (parent)
chain: RSEFTLMAKRIGKDLSNTFAKLEK

Variants of: B1
Test: protein stability index of a GFP-peptide fusion (GPS, HEK-293T) (PSI 1-6); higher = more stable
Details: c terminus: native
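Also: lentivirally expressed fusions sorted by FACS into six bins by GFP to DsRed ratio, PSI derived from sequencing read proportions per bin multiplied by bin number.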

| Variant | protein stability index |
| --- | --- |
| E17F | 1.62 |
| E17H | 1.99 |
| E17G | 1.56 |
| E17W | 2.07 |
| E17T | 1.4 |
| G16I | 1.77 |
| G16H | 1.56 |
| G16C | 2.74 |
| S23E | 1.5 |
| S23K | 2.28 |
| S23G | 2 |
| S23F | 2.01 |
| S23I | 2.18 |
| S23W | 2.5 |
| D5A | 1.5 |
| D5T | 2.18 |
| D5L | 2.17 |
| D5W | 3.3 |
| D5E | 3 |
| D5I | 2.41 |
| D5K | 3.72 |
| D5P | 2.04 |
| H18C | 2.04 |
| H18L | 1.99 |
| S10C | 1.56 |
| S10V | 1.95 |

| Variant | protein stability index |
| --- | --- |
| S10Q | 2.08 |
| S10N | 1.72 |
| H21I | 3.07 |
| H21D | 2.15 |
| H12S | 3.03 |
| H12G | 3.61 |
| H12T | 2.15 |
| H12L | 2.06 |
| H12N | 2.67 |
| R19T | 1.92 |
| R19D | 1.93 |
| Y1C | 3.03 |
| Y1K | 2.12 |
| Y1G | 3.97 |
| Y1D | 4.05 |
| E8W | 2.44 |
| E8I | 2.78 |
| E8H | 4.13 |
| E8Y | 3.85 |
| E8A | 2.79 |
| T14I | 2.15 |
| T14E | 1.68 |
| T14A | 2.38 |
| Q4K | 2.21 |
| Q4D | 2.75 |
| Q4H | 2.21 |

| Variant | protein stability index |
| --- | --- |
| Q4C | 1.44 |
| Q4V | 2.23 |
| Q4L | 2.08 |
| Q4F | 2.33 |
| Q4S | 2.42 |
| Q4M | 1.77 |
| Q4E | 3.35 |
| M22K | 1.46 |
| M22P | 2.01 |
| M22D | 1.94 |
| M22R | 1.99 |
| M22W | 1.65 |
| M22V | 2 |
| M22A | 2.58 |
| M22S | 2.03 |
| Y7G | 2.44 |
| Y7P | 1.78 |
| Y7Q | 2.04 |
| Y7T | 1.85 |
| Y7W | 2.46 |
| Y7A | 1.89 |
| S11Q | 2.07 |
| S11G | 2 |
| S11V | 1.6 |
| S11Y | 1.67 |
| S11C | 1.68 |

| Variant | protein stability index |
| --- | --- |
| S11P | 3.03 |
| R15T | 2.9 |
| R15L | 2.12 |
| R15Y | 2.29 |
| H2D | 3.76 |
| H2A | 2.5 |
| R6G | 2.22 |
| R6H | 1.8 |
| R6Q | 1.9 |
| R6N | 2.44 |
| I13R | 1.49 |
| I13L | 2.52 |
| I13D | 1.52 |
| S3V | 2.15 |
| S3P | 2.5 |
| S3C | 1.59 |
| S3N | 1.61 |
| F9K | 2.05 |
| F9Y | 1.95 |
| F9A | 2.02 |
| F9V | 2.65 |
| F9D | 1.98 |
| F9Q | 1.17 |
| F9M | 2.44 |

Variants of: B2
Test: as above
Details: c terminus: a fixed tail appended

| Variant | protein stability index |
| --- | --- |
| M7H | 2.03 |
| M7A | 1.64 |
| M7W | 3.31 |
| M7D | 4.15 |
| M7N | 3.04 |
| M7G | 2.73 |
| M7P | 3.36 |
| M7V | 2.73 |
| M7F | 3.38 |
| M7Q | 3.21 |
| M7E | 3.2 |
| M7C | 1.01 |
| M7T | 2.54 |
| M7S | 3.12 |
| M7Y | 2.39 |
| M7K | 3.75 |
| M7R | 2.72 |
| T5P | 2.69 |
| T5I | 2.62 |
| T5D | 2.25 |
| T5C | 1.8 |
| T5N | 2.57 |
| T5L | 2.46 |
| T5E | 1.35 |

| Variant | protein stability index |
| --- | --- |
| T5Q | 1.02 |
| T5K | 1.54 |
| T5F | 3.04 |
| T5H | 2.58 |
| T5W | 2.76 |
| R1D | 1.92 |
| R1T | 2.7 |
| R1K | 2.08 |
| R1H | 3.98 |
| R1V | 2.54 |
| R1Y | 4.8 |
| R1E | 1.45 |
| R1L | 3.25 |
| R1P | 2.63 |
| R1S | 2.54 |
| R1I | 1.92 |
| R1Q | 1.49 |
| R1N | 1.82 |
| R1A | 2.12 |
| K13E | 2.34 |
| K13F | 3.26 |
| K13V | 2.1 |
| K13P | 2.54 |
| K13D | 3.34 |

| Variant | protein stability index |
| --- | --- |
| K13G | 2.84 |
| K13S | 2.55 |
| K13M | 1.07 |
| K13N | 2.06 |
| K13Q | 2.35 |
| K13A | 1.49 |
| K13T | 1.46 |
| K13C | 2.46 |
| K13L | 2.83 |
| K13R | 2.33 |
| E3C | 2.91 |
| E3P | 4.75 |
| E3Y | 2.51 |
| E3Q | 4.2 |
| E3L | 4.31 |
| E3R | 3.64 |
| E3H | 2.61 |
| E3K | 2.75 |
| E3T | 3.43 |
| E3M | 2.25 |
| R10F | 2.29 |
| R10M | 1.99 |
| R10S | 2.11 |
| R10C | 2.66 |

| Variant | protein stability index |
| --- | --- |
| R10G | 2.35 |
| R10D | 3.12 |
| R10T | 1.99 |
| R10H | 2.01 |
| R10E | 2.94 |
| R10L | 2.73 |
| R10I | 1.95 |
| R10Q | 1.05 |
| R10A | 2.85 |
| R10N | 2.36 |
| R10V | 1.09 |
| R10K | 3.31 |
| R10P | 4.03 |
| R10Y | 1.28 |
| R10W | 2.02 |
| L6G | 1.63 |
| L6T | 2.48 |
| L6R | 3.66 |
| L6D | 1.4 |
| L6F | 2.36 |
| L6V | 2.28 |
| L6I | 3.08 |
| L6W | 2.53 |
| L6H | 1.86 |

| Variant | protein stability index |
| --- | --- |
| L6N | 2.06 |
| L6C | 2.21 |
| L6P | 2.85 |
| L6Q | 2.23 |
| K9A | 1.66 |
| K9H | 2.64 |
| K9V | 2.17 |
| K9D | 2.83 |
| K9W | 1.97 |
| K9P | 2.94 |
| K9Q | 2.54 |
| K9L | 1.88 |
| K9I | 1.82 |
| K9E | 2.56 |
| K9C | 2.1 |
| K9R | 2.04 |
| K9G | 2.01 |
| K9M | 1.92 |
| K9N | 2.63 |
| K9S | 2.87 |
| K9T | 2.06 |
| K9F | 1.53 |
| K9Y | 2.99 |
| S16C | 1.65 |

| Variant | protein stability index |
| --- | --- |
| S16F | 4.43 |
| S16E | 1.41 |
| S16G | 2.41 |
| S16D | 2.45 |
| D14K | 3.03 |
| D14I | 4.05 |
| D14G | 3.97 |
| D14T | 4.17 |
| D14S | 2.13 |
| D14A | 4.25 |
| D14P | 2.49 |
| D14M | 2.59 |
| D14V | 2.64 |
| D14Q | 4.98 |
| D14E | 4.59 |
| D14C | 2.71 |
| D14Y | 2.65 |
| D14L | 2.61 |
| A8Y | 1.85 |
| A8K | 2.99 |
| A8D | 3.02 |
| A8T | 1.54 |
| A8W | 2.44 |
| A8S | 2.1 |

| Variant | protein stability index |
| --- | --- |
| A8N | 3.4 |
| A8P | 3.46 |
| A8G | 2.49 |
| A8E | 2.87 |
| A8H | 3.46 |
| A8Q | 2.96 |
| A8C | 2.49 |
| A8I | 2.79 |
| A8R | 2.79 |
| I11A | 2.77 |
| I11H | 3.46 |
| I11Y | 2.14 |
| I11W | 1.18 |
| I11P | 3.52 |
| I11D | 3.84 |
| I11N | 4.29 |
| I11K | 2.93 |
| I11T | 3.13 |
| I11V | 1.16 |
| I11C | 2.06 |
| I11L | 1.57 |
| I11S | 3.87 |
| I11M | 1.65 |
| I11G | 3.41 |

| Variant | protein stability index |
| --- | --- |
| I11R | 3.81 |
| I11Q | 3.33 |
| I11E | 3.9 |
| I11F | 3.65 |
| G12N | 1.81 |
| G12S | 3.15 |
| G12P | 3.81 |
| G12L | 3.53 |
| G12K | 2.79 |
| G12R | 2.16 |
| G12F | 2.15 |
| G12D | 2.9 |
| G12Q | 1.69 |
| G12C | 2.2 |
| G12H | 2.87 |
| G12V | 1.54 |
| G12E | 2.42 |
| G12M | 2.58 |
| S2A | 1.36 |
| S2P | 2.07 |
| S2N | 1.03 |
| S2C | 3.2 |
| S2Q | 3.27 |
| S2W | 2.39 |

| Variant | protein stability index |
| --- | --- |
| S2G | 1.51 |
| S2T | 1.9 |
| S2F | 2.72 |
| S2D | 1.66 |
| F4P | 3.58 |
| F4W | 3.86 |
| F4K | 3.62 |
| F4L | 2.33 |
| F4R | 3.34 |
| F4E | 4.58 |
| F4C | 2.65 |
| F4M | 2.35 |
| F4N | 2.98 |
| F4Y | 2.1 |
| F4D | 3.88 |
| F4G | 3.64 |
| F4V | 1.8 |
| F4Q | 3.49 |
| F4A | 2.48 |
| F4S | 3.69 |
| F4H | 3.31 |
| L15W | 2.05 |
| L15G | 3.75 |
| L15M | 2.72 |

| Variant | protein stability index |
| --- | --- |
| L15D | 3.46 |
| L15T | 3.27 |
| L15I | 3.43 |
| L15N | 3.79 |
| L15Y | 2.4 |
| L15F | 2.92 |
| L15A | 2.59 |
| L15Q | 3.1 |
| L15C | 1.53 |
| L15R | 2.97 |
| L15V | 1.9 |
| L15E | 3.89 |
| L15P | 3.14 |
| L15K | 3.24 |
| L15S | 2.81 |
| L15H | 2.6 |
